Experimental data taken from patent US11155602B2, “Polypeptides targeting HIV fusion” (priority 2015, dated 2021).

Tested on: NL-Rluc virus
Assay: Combinectin potency assay: antiviral EC50, NL-Rluc virus in MT-2 cells, luciferase readout
Format: cell-based, HIV-1
Conditions: Anti-N17 Adnectin - HIV fusion peptide inhibitor Combinectin, Table 4
Method in brief: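 MT-2 cells infected with replication-competent NL-Rluc HIV (nef replaced by Renilla luciferase) at MOI 0.01 for 1 h, then added to threefold-diluted peptides (11 concentrations, triplicate). After 4–5 days, luciferase measured by Dual Luciferase; EC50 relative to no-peptide wells.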

B1: 426 (protein)
chain: MGHHHHHHGGSVSDVPRDLEVVAATPTSLLISWEYKVNAYRYYRITYGETGGNSPVQEFTVPSVLSTATISGLKPGVDYTITVYAVTYGVDSDPISINYRTEIDGGGGSGGGGSGGGGSGGGGSEYEARIEALIRAAQEQQEKNEAALRELYKWAS
modifications: Anti-N17 Adnectin - HIV fusion peptide inhibitor Combinectin
  EC50: 139 nM

B2: 427 (protein)
chain: MGHHHHHHGVSDVPRDLEVVAATPTSLLISWKYKVHPYRYYRITYGETGGNSPVQEFTVPSVLSTATISGLKPGVDYTITVYAVTYGVNSLPISINYRTEIDGGGGSGGGGSGGGGSGGGGTEYEARIEALIRAAQEQQEKNEAALRELKEWASIWN
modifications: Anti-N17 Adnectin - HIV fusion peptide inhibitor Combinectin
  EC50: 143 nM
